Source: article PMC3229523, “Identification of Lactoferricin B Intracellular Targets Using an Escherichia coli Proteome Chip” (PLoS ONE, 2011)
Ends that are not written are not given here. * marks the point of attachment. Biotin = O=C1N[C@H]2[C@H](CS[C@H]2CCCCC(=O)*)N1

Tests used:
Experiment in all cases: peptide or protein array; E. coli proteome chip: purified His-tagged proteins printed in duplicate on Fullmoon slides, blocked with 1% BSA; 10 nM N-terminal biotinylated LfcinB with 1% BSA, room temperature, 1 h; detected with DyLight 649-labeled streptavidin, ratio to DyLight 549-labeled anti-His antibody; ProCAT normalisation, local cut-off; triplicate chips
Conditions in all cases: both partners purified
GlpK = molecular target: T1, GlpK (E. coli K-12, UniProt P0A6F3 1-502)
T1 construct: GlpK, E. coli K-12

FlgC = molecular target: T2, FlgC (E. coli K-12, UniProt P0ABX2 1-134)
T2 construct: FlgC, E. coli K-12
T2 sequence (looked up): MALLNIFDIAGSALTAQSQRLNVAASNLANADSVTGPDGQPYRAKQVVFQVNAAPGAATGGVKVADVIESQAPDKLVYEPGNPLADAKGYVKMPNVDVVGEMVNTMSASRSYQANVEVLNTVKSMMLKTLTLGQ

CbpA = molecular target: T3, CbpA (E. coli K-12, UniProt P36659 1-306)
T3 construct: CbpA, E. coli K-12
T3 sequence (looked up): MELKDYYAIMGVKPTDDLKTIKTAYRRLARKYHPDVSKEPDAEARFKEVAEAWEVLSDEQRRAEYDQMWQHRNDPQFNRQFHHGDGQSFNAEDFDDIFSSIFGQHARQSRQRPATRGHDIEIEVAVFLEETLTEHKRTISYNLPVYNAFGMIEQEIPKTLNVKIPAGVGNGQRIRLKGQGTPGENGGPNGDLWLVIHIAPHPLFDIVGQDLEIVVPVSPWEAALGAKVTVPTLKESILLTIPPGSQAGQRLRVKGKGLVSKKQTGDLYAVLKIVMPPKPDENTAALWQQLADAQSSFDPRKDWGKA

YbaE = molecular target: T4, YbaE (E. coli K-12, UniProt P46890 1-566)
T4 construct: YbaE, E. coli K-12
T4 sequence (looked up): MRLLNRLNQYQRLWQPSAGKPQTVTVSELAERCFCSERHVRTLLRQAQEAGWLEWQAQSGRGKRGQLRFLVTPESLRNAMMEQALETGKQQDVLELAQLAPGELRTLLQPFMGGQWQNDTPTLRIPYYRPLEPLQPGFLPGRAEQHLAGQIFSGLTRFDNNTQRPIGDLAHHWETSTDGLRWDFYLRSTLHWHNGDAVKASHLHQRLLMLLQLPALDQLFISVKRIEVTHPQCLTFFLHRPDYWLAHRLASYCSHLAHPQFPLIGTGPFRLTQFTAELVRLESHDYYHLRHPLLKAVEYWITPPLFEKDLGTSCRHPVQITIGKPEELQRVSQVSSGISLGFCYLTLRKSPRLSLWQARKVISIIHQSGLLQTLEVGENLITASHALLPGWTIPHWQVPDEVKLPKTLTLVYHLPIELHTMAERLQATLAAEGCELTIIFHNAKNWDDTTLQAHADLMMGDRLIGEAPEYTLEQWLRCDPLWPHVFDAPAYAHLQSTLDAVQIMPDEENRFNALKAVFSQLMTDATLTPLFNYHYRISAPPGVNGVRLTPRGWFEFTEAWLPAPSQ

GlgS = molecular target: T5, GlgS (E. coli K-12, UniProt P26649 1-66)
T5 construct: GlgS, E. coli K-12
T5 sequence (looked up): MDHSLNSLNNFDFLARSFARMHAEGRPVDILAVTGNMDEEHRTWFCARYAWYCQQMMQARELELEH

YhjH = molecular target: T6, YhjH (E. coli K-12, UniProt P37646 1-255)
T6 construct: YhjH, E. coli K-12
T6 sequence (looked up): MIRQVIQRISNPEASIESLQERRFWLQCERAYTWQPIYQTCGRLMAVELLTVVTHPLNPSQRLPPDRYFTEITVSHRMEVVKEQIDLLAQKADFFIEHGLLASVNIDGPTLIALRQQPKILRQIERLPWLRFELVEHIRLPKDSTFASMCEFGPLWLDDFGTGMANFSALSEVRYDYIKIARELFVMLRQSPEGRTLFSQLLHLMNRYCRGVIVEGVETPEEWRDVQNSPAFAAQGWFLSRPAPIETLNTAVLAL

YcgW = molecular target: T7, YcgW (E. coli K-12, UniProt P75987 1-107)
T7 construct: YcgW, E. coli K-12
T7 sequence (looked up): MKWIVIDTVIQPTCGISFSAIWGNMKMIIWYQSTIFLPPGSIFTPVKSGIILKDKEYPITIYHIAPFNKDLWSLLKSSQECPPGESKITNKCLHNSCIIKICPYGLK

Measured: binding result

T1 sequence (P0A6F3 whole entry): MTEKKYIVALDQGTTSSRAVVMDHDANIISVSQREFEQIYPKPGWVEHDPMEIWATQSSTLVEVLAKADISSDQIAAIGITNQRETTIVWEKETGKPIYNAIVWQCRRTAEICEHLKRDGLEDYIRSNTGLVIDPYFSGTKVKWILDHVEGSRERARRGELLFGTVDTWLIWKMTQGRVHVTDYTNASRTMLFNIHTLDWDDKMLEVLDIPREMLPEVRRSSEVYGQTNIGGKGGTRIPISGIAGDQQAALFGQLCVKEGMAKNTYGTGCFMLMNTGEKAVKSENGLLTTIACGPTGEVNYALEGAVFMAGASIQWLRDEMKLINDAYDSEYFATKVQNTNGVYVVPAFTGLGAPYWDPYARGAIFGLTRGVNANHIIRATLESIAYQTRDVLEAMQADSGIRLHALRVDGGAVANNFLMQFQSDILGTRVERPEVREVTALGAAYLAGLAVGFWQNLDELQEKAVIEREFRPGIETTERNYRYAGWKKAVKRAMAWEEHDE

B1: N-terminal biotinylated Lactoferricin B (peptide, UniProt P24627 36-60, looked up)
peptide: Biotin-FKCRRWQWRMKKLGAPSITCVRRAF
modifications: ends and bridges not checked
notes: lactoferricin B (LfcinB), cationic antimicrobial peptide of 25 amino acids; also called biotinylated LfcinB; biotin-labeled LfcinB; source: bought: Kelowna Inc
binds: GlpK | FlgC | CbpA | YbaE | GlgS | YhjH | YcgW
